{
  "source": "IntAct's records for PubMed 23700447",
  "parents": {"B1": {"name": "Membrane protein (Human SARS coronavirus), P59596 (parent)", "chain": "MADNGTITVEELKQLLEQWNLVIGFLFLAWIMLLQFAYSNRNRFLYIIKLVFLWLLWPVTLACFVLAAVYRINWVTGGIAIAMACIVGLMWLSYFVASFRLFARTRSMWSFNPETNILLNVPLRGTIVTRPLMESELVIGAVIIRGHLRMAGHSLGRCDIKDLPKEITVATSRTLSYYKLGASQRVGTDSGFAAYNRYRIGNYKLNTDHAGSNDNIALLVQ"}},
  "data": [
    {"variants_of": "B1", "conditions": "with ncap_sars N", "values": [
      {"variant": "L218A;L219A", "effect of a mutation on the interaction": "with no effect"}
    ]}
  ]
}
